Results on 7 molecules are retold here after PMC11331505, “Binding Behavior of Human Hepatoma-Derived Growth Factor on SMYD1”.

One data set concerns D. ficus RecA (D. ficus). As to the kind of experiment: PIFE (Cy3 fluorescence enhancement). The note with it: 1 nM DNA; HDGF assays: 46 mM NaCl, 0.9 mM KCl, 3.3 mM Na2HPO4, 0.66 mM KH2PO4, pH 7.4; at least 1 h on ice; 1-10 nM Cy3 DNA, 10 pM-100 nM protein; RecA dsDNA control at ….
In data set [1] the target is T1, HDGF PWWP domain;HDGF C140 domain (human;human, UniProt P51858;P51858 1-100;101-240, |). As to the kind of experiment: PIFQ (Cy3 fluorescence quenching); 1 nM DNA; equal amounts premixed; Hill n=0.63; HDGF assays: 46 mM NaCl, 0.9 mM KCl, 3.3 mM Na2HPO4, 0.66 mM KH2PO4, pH 7.4; at least 1 h on ice; 1-10 nM Cy3 DNA, 10 pM-100 nM protein; RecA dsDNA control at pH 7.5. The note with it: protein: recombinant;recombinant; copies: 1;1; label: 5' Cy3.

For data set [2], the target named is T2, HDGF (human, UniProt P51858 1-240). As to the kind of experiment: PIFQ (Cy3 fluorescence quenching); 10 nM DNA; Hill fit (approximation model 0.031 nM); HDGF assays: 46 mM NaCl, 0.9 mM KCl, 3.3 mM Na2HPO4, 0.66 mM KH2PO4, pH 7.4; at least 1 h on ice; 1-10 nM Cy3 DNA, 10 pM-100 nM protein; RecA dsDNA control at pH 7.5. The conditions noted are these: protein: recombinant; label: 5' Cy3.

The target in data set [3] is T3, HDGF PWWP domain (human, UniProt P51858 1-100). As to the kind of experiment: PIFQ (Cy3 fluorescence quenching); 5 nM DNA; approximation model; HDGF assays: 46 mM NaCl, 0.9 mM KCl, 3.3 mM Na2HPO4, 0.66 mM KH2PO4, pH 7.4; at least 1 h on ice; 1-10 nM Cy3 DNA, 10 pM-100 nM protein; RecA dsDNA control at pH 7.5. The note with it: protein: recombinant; label: 5' Cy3.
For data set [4], the target named is T4, HDGF S103A (human, UniProt P51858 1-240, S103A). The data set can be described thus: PIFQ (Cy3 fluorescence quenching); 1 nM DNA; Hill n=0.67; HDGF assays: 46 mM NaCl, 0.9 mM KCl, 3.3 mM Na2HPO4, 0.66 mM KH2PO4, pH 7.4; at least 1 h on ice; 1-10 nM Cy3 DNA, 10 pM-100 nM protein; RecA dsDNA control at pH 7.5. The note with it: protein: recombinant; label: 5' Cy3.

Data set [5] has as its target T3, HDGF PWWP domain. The data set can be described thus: PIFQ (Cy3 fluorescence quenching); 10 nM DNA; approximation model; less reliable (protein depletion); HDGF assays: 46 mM NaCl, 0.9 mM KCl, 3.3 mM Na2HPO4, 0.66 mM KH2PO4, pH 7.4; at least 1 h on ice; 1-10 nM Cy3 DNA, 10 pM-100 nM protein; RecA dsDNA control at pH 7.5. The note with it: protein: recombinant; label: 5' Cy3.

Data set [6] deals with T5, HDGF C140 domain (human, UniProt P51858 101-240). As to the kind of experiment: PIFQ (Cy3 fluorescence quenching); 1 nM DNA; up to 100 nM protein; HDGF assays: 46 mM NaCl, 0.9 mM KCl, 3.3 mM Na2HPO4, 0.66 mM KH2PO4, pH 7.4; at least 1 h on ice; 1-10 nM Cy3 DNA, 10 pM-100 nM protein; RecA dsDNA control at pH 7.5. The note with it: protein: recombinant; label: 5' Cy3.
The target of data set [7] is T3, HDGF PWWP domain. As to the kind of experiment: PIFQ (Cy3 fluorescence quenching); 1 nM DNA; n=1.00; HDGF assays: 46 mM NaCl, 0.9 mM KCl, 3.3 mM Na2HPO4, 0.66 mM KH2PO4, pH 7.4; at least 1 h on ice; 1-10 nM Cy3 DNA, 10 pM-100 nM protein; RecA dsDNA control at pH 7.5. The note with it: protein: recombinant; label: 5' Cy3.
Data set [8] concerns the target T2, HDGF. As to the kind of experiment: PIFQ (Cy3 fluorescence quenching); 1 nM DNA; Hill fit (approximation model 0.017 nM); HDGF assays: 46 mM NaCl, 0.9 mM KCl, 3.3 mM Na2HPO4, 0.66 mM KH2PO4, pH 7.4; at least 1 h on ice; 1-10 nM Cy3 DNA, 10 pM-100 nM protein; RecA dsDNA control at pH 7.5. The conditions noted are these: protein: recombinant; label: 5' Cy3.
The target in data set [9] is T2, HDGF. The data set can be described thus: PIFQ (Cy3 fluorescence quenching); 5 nM DNA; Hill fit (approximation model 0.019 nM); HDGF assays: 46 mM NaCl, 0.9 mM KCl, 3.3 mM Na2HPO4, 0.66 mM KH2PO4, pH 7.4; at least 1 h on ice; 1-10 nM Cy3 DNA, 10 pM-100 nM protein; RecA dsDNA control at pH 7.5. The note with it: protein: recombinant; label: 5' Cy3.
Data set [10] has as its target T3, HDGF PWWP domain. The data set can be described thus: PIFQ (Cy3 fluorescence quenching); 1 nM DNA; Hill n=1.0; unit not printed in legend; HDGF assays: 46 mM NaCl, 0.9 mM KCl, 3.3 mM Na2HPO4, 0.66 mM KH2PO4, pH 7.4; at least 1 h on ice; 1-10 nM Cy3 DNA, 10 pM-100 nM protein; RecA dsDNA control at pH 7.5. The conditions noted are these: protein: recombinant; label: 3' Cy3.

The target in data set [11] is T2, HDGF. The data set can be described thus: PIFQ (Cy3 fluorescence quenching); 1 nM DNA; Hill n=0.60; unit not printed in legend; HDGF assays: 46 mM NaCl, 0.9 mM KCl, 3.3 mM Na2HPO4, 0.66 mM KH2PO4, pH 7.4; at least 1 h on ice; 1-10 nM Cy3 DNA, 10 pM-100 nM protein; RecA dsDNA control at pH 7.5. The conditions noted are these: protein: recombinant; label: 3' Cy3.
Data set [12] has as its target T1, HDGF PWWP domain;HDGF C140 domain. As to the kind of experiment: PIFQ (Cy3 fluorescence quenching); 1 nM DNA; equal amounts premixed; Hill n=0.50; HDGF assays: 46 mM NaCl, 0.9 mM KCl, 3.3 mM Na2HPO4, 0.66 mM KH2PO4, pH 7.4; at least 1 h on ice; 1-10 nM Cy3 DNA, 10 pM-100 nM protein; RecA dsDNA control at pH 7.5. The note with it: protein: recombinant;recombinant; copies: 1;1; label: Cy3.

Data set [13] deals with T3, HDGF PWWP domain. The data set can be described thus: PIFQ (Cy3 fluorescence quenching); 1 nM DNA; Hill n=1.00; HDGF assays: 46 mM NaCl, 0.9 mM KCl, 3.3 mM Na2HPO4, 0.66 mM KH2PO4, pH 7.4; at least 1 h on ice; 1-10 nM Cy3 DNA, 10 pM-100 nM protein; RecA dsDNA control at pH 7.5. The conditions noted are these: protein: recombinant; label: Cy3.
In data set [14] the target is T4, HDGF S103A. The data set can be described thus: PIFQ (Cy3 fluorescence quenching); 1 nM DNA; Hill n=0.50; HDGF assays: 46 mM NaCl, 0.9 mM KCl, 3.3 mM Na2HPO4, 0.66 mM KH2PO4, pH 7.4; at least 1 h on ice; 1-10 nM Cy3 DNA, 10 pM-100 nM protein; RecA dsDNA control at pH 7.5. The conditions noted are these: protein: recombinant; label: Cy3.
For data set [15], the target named is T5, HDGF C140 domain. As to the kind of experiment: PIFQ (Cy3 fluorescence quenching); 1 nM DNA; HDGF assays: 46 mM NaCl, 0.9 mM KCl, 3.3 mM Na2HPO4, 0.66 mM KH2PO4, pH 7.4; at least 1 h on ice; 1-10 nM Cy3 DNA, 10 pM-100 nM protein; RecA dsDNA control at pH 7.5. The conditions noted are these: protein: recombinant.
Data set [16] has as its target T2, HDGF. As to the kind of experiment: PIFQ (Cy3 fluorescence quenching); 1 nM DNA; Hill n=0.55; HDGF assays: 46 mM NaCl, 0.9 mM KCl, 3.3 mM Na2HPO4, 0.66 mM KH2PO4, pH 7.4; at least 1 h on ice; 1-10 nM Cy3 DNA, 10 pM-100 nM protein; RecA dsDNA control at pH 7.5. The conditions noted are these: protein: recombinant; label: Cy3.
The next data set concerns the target E. coli RecA (E. coli, UniProt P0A7G6 2-353). As to the kind of experiment: PIFE (Cy3 fluorescence enhancement); 1 nM DNA; approximation model; HDGF assays: 46 mM NaCl, 0.9 mM KCl, 3.3 mM Na2HPO4, 0.66 mM KH2PO4, pH 7.4; at least 1 h on ice; 1-10 nM Cy3 DNA, 10 pM-100 nM protein; RecA dsDNA control at pH 7.5. The note with it: label: Cy3.
In data set [17] the target is T2, HDGF. As to the kind of experiment: PIFQ (Cy3 fluorescence quenching); 1 nM DNA; HDGF assays: 46 mM NaCl, 0.9 mM KCl, 3.3 mM Na2HPO4, 0.66 mM KH2PO4, pH 7.4; at least 1 h on ice; 1-10 nM Cy3 DNA, 10 pM-100 nM protein; RecA dsDNA control at pH 7.5. The conditions noted are these: protein: recombinant; label: 5' Cy3.
Data set [18] deals with T4, HDGF S103A. Described as above. The note with it: protein: recombinant; label: 5' Cy3.
For data set [19], the target named is T3, HDGF PWWP domain. The data set can be described thus: PIFQ (Cy3 fluorescence quenching); 1 nM DNA; Hill fit; HDGF assays: 46 mM NaCl, 0.9 mM KCl, 3.3 mM Na2HPO4, 0.66 mM KH2PO4, pH 7.4; at least 1 h on ice; 1-10 nM Cy3 DNA, 10 pM-100 nM protein; RecA dsDNA control at pH 7.5. The conditions noted are these: protein: recombinant; label: 5' Cy3.

T4 sequence (P51858 whole entry S103A): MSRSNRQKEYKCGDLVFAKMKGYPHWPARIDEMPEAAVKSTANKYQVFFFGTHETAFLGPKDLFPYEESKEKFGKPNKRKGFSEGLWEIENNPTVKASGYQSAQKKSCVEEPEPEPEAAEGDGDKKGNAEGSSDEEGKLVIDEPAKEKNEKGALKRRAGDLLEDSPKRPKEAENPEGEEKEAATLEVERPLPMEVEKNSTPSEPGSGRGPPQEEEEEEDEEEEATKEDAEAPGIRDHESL
T5 sequence (P51858 101-240): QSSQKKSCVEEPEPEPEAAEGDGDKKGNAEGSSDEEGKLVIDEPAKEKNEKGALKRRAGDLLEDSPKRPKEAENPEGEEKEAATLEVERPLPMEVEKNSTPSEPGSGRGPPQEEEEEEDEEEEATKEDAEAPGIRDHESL
T2 sequence (P51858 whole entry): as the sequence (P51858 whole entry S103A) above, with A103S counted along it
T3 sequence (P51858 1-100): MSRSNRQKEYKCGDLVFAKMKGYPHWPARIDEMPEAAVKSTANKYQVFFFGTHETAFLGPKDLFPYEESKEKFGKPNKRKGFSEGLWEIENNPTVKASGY
T1 sequence (P51858 1-100, chain 1 of 2): as the sequence (P51858 1-100) above
T1 sequence (P51858 101-240, chain 2 of 2): as the sequence (P51858 101-240) above
Chain of E. coli RecA (P0A7G6 2-353): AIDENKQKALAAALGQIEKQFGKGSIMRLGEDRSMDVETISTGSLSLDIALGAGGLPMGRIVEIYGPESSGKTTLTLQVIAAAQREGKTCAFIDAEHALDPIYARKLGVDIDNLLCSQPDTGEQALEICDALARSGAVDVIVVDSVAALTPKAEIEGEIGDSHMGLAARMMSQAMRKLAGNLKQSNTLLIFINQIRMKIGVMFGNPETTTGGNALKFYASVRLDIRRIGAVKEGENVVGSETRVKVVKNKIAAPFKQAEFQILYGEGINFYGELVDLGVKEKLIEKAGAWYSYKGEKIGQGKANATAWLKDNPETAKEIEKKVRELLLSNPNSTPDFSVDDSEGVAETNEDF

Turning to “TTTTTTTTTTTTTTTTTTTTTTTTTTTTTTTTTTTTTTTT (double strand) [poly(T-A)40 dsDNA]”, in the data set with D. ficus RecA (D. ficus), the Kd amounted to 19 nM.
Same read-out and setting: under “TTTTTTTTTTTTTTTTTTTTTTTTTTTTTTTTTTTTTTTT [poly(dT)40 ssDNA]” stands 13.6 nM.

B1: 15 bp SMYD1 dsDNA (5' Cy3) (dsDNA)
DNA 1: TTCAAGACCAGCCTG
DNA 2: CAGGCTGGTCTTGAA
For B1, the Kd in data set [1] was 0.12 ± 0.04 nM; with HDGF [2], 0.076 ± 0.02 nM; with HDGF PWWP domain [3], ~1 nM; with HDGF S103A [4], 0.072 ± 0.003 nM; with HDGF PWWP domain [5], 1.6 ± 0.2 nM; with HDGF PWWP domain [7] it was 0.94 ± 0.1 nM. The Kd with HDGF [8] turned out to be 0.095 ± 0.016 nM; in the data set with HDGF [9], 0.085 ± 0.024 nM. In the data set with HDGF C140 domain [6], the binding result is given as “no binding”.

B2: 15 bp SMYD1 dsDNA (3' Cy3) (dsDNA)
DNA 1: TTCAAGACCAGCCTG
DNA 2: CAGGCTGGTCTTGAA
Take B2: the equilibrium dissociation constant (Kd) stood at 1.4 ± 0.2 nM with HDGF PWWP domain [10] and 0.08 ± 0.004 nM in the data set with HDGF [11].

B3: GC-rich dsDNA (dsDNA)
DNA 1: TCCTCGCTGCCGTCGGCCA
DNA 2: TGGCCGACGGCAGCGAGGA
On to B3, for which the equilibrium dissociation constant (Kd) amounted to 0.45 ± 0.06 nM in data set [12], 0.97 ± 0.19 nM with HDGF PWWP domain [13], 0.34 ± 0.06 nM with HDGF S103A [14] and 0.25 ± 0.03 nM with HDGF [16]. For the same molecule, the binding result with HDGF C140 domain [15] (label: Cy3) was “no binding”.
As for TTTTTTTTTTTTTTTTTTTTTTTTTTTTTTTTTTTTTTTT (ssDNA) [poly(dT)40 ssDNA], in the data set with E. coli RecA, the Kd came to 34.5 ± 6.8 nM.

B4: poly(T-A)15 dsDNA (dsDNA)
DNA 1: TTTTTTTTTTTTTTT
DNA 2: AAAAAAAAAAAAAAA
Consider B4, for which the binding result with HDGF [17], in the data set with HDGF C140 domain [15] (label: 5' Cy3) and with HDGF S103A [18] was “no binding” each time. Moreover, the Kd with HDGF PWWP domain [19] is 1.6 ± 0.2 nM.

By Kd is commonly meant a measure of binding affinity in units of concentration.
